From paper doi:10.1101/2024.12.02.626349 (bioRxiv, 2024)

Biological target: ^15N-labeled wild-type untagged ubiquitin (UniProt P0CG48 1-76, ^15N-labeled)
Assay: NMR titration

Kd: 124 µM
B1: 6xHis-tagged UBR4-UBL (residues 4340-4463) (domain or fragment)
chain: YPEENEVTEFFVTLEKDPQQEDFLQGRMPGNPYSSNEPGIGPLMRDIKNKICQDCDLVALLEDDSGMELLVNNKIISLDLPVAEVYKKVWCTTNEGEPMRIVYRMRGLLGDATEEFIESLDSTT
